# Assay: soluble on expression in E. coli; label from the status in PepcDB or PDB records
row,Sequence,soluble on expression in E. coli
1,MSLIRKREFDMPIKIPDTLPAFETLVHEGVRVMTETAAIRQDIRPLQIGLLNLMPNKIKTEIQMARLVGASPLQVELSLIRIGGHRAKNTPEEHLLSFYQTWEEVRHRKFDGFIITGAPIELLDYEDVTYWNEMQQIFEWTQTNVHSTLNVCWGAMAAIYHFHGVPKYELKEKAFGVYRHRNLSPSSIYLNGFSDDFQVPVSRWTEVRRADIEKHPELEILMESDEMGVCLAHEKAGNRLYMFNHVEYDSTSLADEYFRDVNSGVPIKLPHDYFPHNDPELAPLNRWRSHAHLFFGNWINEIYQTTPYDPQAIGKLAAEGHHHHHH,soluble
2,MKTLLTSATLLVTTLSTPLMAKEADIQSLVNAAQKEGQVYSVGMPGSWANWKDTWNDLNKLYGLKHQDTDMSSAQEIAKFAAEKNNATADIGDIGFAFARVAVKKGVTQAYKPTTWDSIPDWAKDKDGHWALAYTGTISFISNNKLVKNPPTSWDDLLEGNYKVSVGDVGVAAQANNAVLAAAFAKGGDESNLKPAIKFFAELAKQGRLSYTDPGLANLEKGEVEVALLWDFNALNYRDKLGRDRFSVNIPQDGSVISGYTTIINKFAKNPNSAKLAREYIFSDQGQINLAEGYARPIRSDVVLPQSIQDKLIPNDQYTNVQPVSDFKAWEKSARKLPRQWQENVLINQQ,not soluble
3,MKSYIVIGAGILGASTAYHLAKEGASVMIIDRGDKGQATDAAAGIVCPWLSQRRNQKWYRLAKGGAKFYPSLIEELESYGETETGYARVGALWLHTDEQKLEQMEERALKRREDAPEMGEIVRLHPQEAKELFPPLVGEHHALYVSGAARVNGRAVRDALMNASQKRGAAYIRGNARLLFEGSRIIGVEADGTKYAAEAVIVTAGAWAGELLEPLGIKLLVTPQKGQLIHLEHPECDTSHWPVVMPPNNQYMLAFPGSRIVIGTTHEDEAGMDIRPTAGGMHELLDKALAVAPGLSTWTYIETRVGFRPRTPGFLPIFGPLPGFSGVYIANGLGSSGLTVGPYLGKELAKLVIGLPTELDPSDYDVASAVAPIVQ,not soluble
4,MSLTDLSMPKPPSVLPDKRQVAASFSRAAGSYESVAELQRSVGSELLSRLPAQFSPVRWLDLGSGTGYFSRALDQVFSGSEGIALDIAEGMLRHAQPLGGAQHFVAGDAEHLPLRDQSCGLIFSSLAVQWCADFAAVLREAHRVLQPSGVFAFASLCVGTLYELRDSWQAVDGQVHVNRFRHEDDYRQLCAASGLQVRSLDVCPQVLHYPDVRSLTHELKALGAHNLNPGRPSGLTGRERIKGMVQAYEAFRQEAGLPATYQVVYAVLEKAEGHHHHHH,not soluble
5,MELAYVDAKKEEFDTLDKNHDGKVSLAEYEEHFHEASSKNEKSRTAYFAKVFEDFDEDFNMALSREELERVLAERFLVKPRENFPKLFFKFDVDKSGGLDLTEYMKFDAEFPFDQTDPVGGGPSKSNNHHDQMHTEVPQDADAAAIAAVLAQASPTLNKSPVGVAPPQTSPGLHPVAPGLFQTAVPIKKV,soluble
6,MGSDKIHHHHHHMREEWLFSRYLNRKRVQRAASLGAGRAETEIALLELGAVEHFDLFDVSSVGIEYAKSIAEEKGFGHKVTCHVGPIGCAELNENTYDLITFVASLHHMEPLAETLERANRALTQHGIIWCANEYIGPDRFDYPVAHAAIAKSFFQQIPPGLRNHWHRELQFPTPQEVAEVDPTEAPCSSKIEPTMRDMFPALEIMPLYGAFAFMVFWGLNHDALYETPEGTELTRFILGMDKALTDAGILPTYFAHIIARKNNAPRQQIHRPGRHSSALLYRYAQRAASILRHLKIR,not soluble
7,MSTQIKVTPEQLEQAAKTVKNTRSSLEYIHQDLYSQTEYIASQWSGASSDRFYQMFNEAKPMMFNILQELDKIAVELERAAVKFREADELYGGNLVDSDIQEGAMCGKIPPKSEESFFNNKDLNAAWTGISTGFVDGAVDAWEGLISLGDKETWLNMRDAIVNYEETIPAALNALSDSFVNNLWHGDMESREHYAAYGIATLGLGLLGDKGLSKAGQVGKGAAITGFTKGKSLVTNSPAYRNALHILNNYEFKAGNHLSYAGVGSIQKYLQKAAPYTYEGPNGPKTIRLRLGELAGDKHPVTGIRYDLDGFPIFKALSEVKLKEADFKKSRPTHDRICSKALYEQIMKDPKLAAKFTEEEIELFKLGEVPENYTWHHHQEAGRMQLVDYETHRKTGHTGGYKIWGKDSDK,not soluble
8,MLFTISENVKEAAQYFVEYKIQSVSDLKEFARVMKEYERKGDSFIHELVVQLNKTFITPIEREDIHQLAMKMDDVLDGFEQCSARFEMFSFTEIDEHMAKFFDYIYQSTIEIVHALELLANKKLLDMRQHAIKIKDYETKCDEILRASIKNLFVTQKDPIKIIQYKELYEMLEEIADSCEDVANTLETIIMRNA,not soluble
9,MCVSSAVCVLSRLSLERFSNFSANFVDNFLLVARFARGETLKNGIVLEISKICPKLYISPVPKLFDCSTDNLLFIYILFASKVRMKEMSTPTGLPALNGDVLSAINDMIGRVIIINTTDKKRYSGVLGAVSQDFDFGMQCVVEITKENENNLLRTESECRDKMVFHYSDIVDFAYVTQEIKKQHAVSKFVTDRQYHGDTPIEGEELQEWNGGEEDGLGGSIEDDVVVAGGQTAARRSNNHNNGTGWSVNDMFAANEKMNVVSTFKEDLTQYTTVEVVGTDEDRARAERLAREIESNSSSKFMANLENDDDERDLDKITRQEDFENGNGRKRNNNSFNQQQQQRRNPNIAPNGQPVNRRAEGLRGDRRNSGSSSANNSRYGAPAAAQQNYSQNQQQQQGQKGYRRQNEENDWQMAKGKGQNQGHDHSFRQQQKQMLDPRPNNNVKPADDKAQSATTATAAAGGSRVTDLKNWGNEFSIATAPKDQAPAVPAGNSGSAWNRGPPSSLVAKGSSNESTPPPTTNGEEAETKKEEAPSTSVDVAAAPVQNVQNDAEKHQEDDNVSVTSENDSVITSKSSSFKFNINAPEFKPRVAPATPTATTPVQNEYHPQQQPHPAMMAPQQGPPAPGMGMVPPHMGGPQNQGQPPMMMWQQTGQQQQGGGGYPQNHQFPIQHVPMQGVPGQMYGPGAATPVTVAQQPNQQHQVPTSAAGGQNHQLRDGEYREKQPLYMPYGPPQMVPVTSQQFYHSQYQGQMQQAAPYQMKMMPQQAPQGAYQQRYQQPQVYMMPPQGQQQQPRYQGPPPPQQQQQQQPQQQQFSGEQSRPQSHPNSQPTTPGPRGELPKMSGAPQNGNMQAESSSNASHSGSTSSQSGQRSGSPPGAVPPPPPPQQQHQQQQHPPHHAPPHVGAPPPQMMQQQQQHIQQYMQVFYPMIMPQQMPMQQNQHPQQSLMGERSDQGFPTSGYFDYRTMPNYQQQQQQQQQQMHRQNSLPQQFQGNQGVNPSGQQSGPPPPPPPSQQGTPRDQQHSQSPP,not soluble
10,MKKGLKMRALERSDLRFIHELNNNRNIMAYWFEEPYESYDELEELYRKHIHDDAERRFVVEDADGILIGLVELIEINYIHRSAEFQII,not soluble
11,AHHHHHHGSEKQGEKMKRLGKVLHYAKQGFLIVRTNWVPSLNDRVVDKRLQFVGIVKDVFGPVKMPYVAIKPKVSNPEIYVGEVLYVDERKRKESPKKNKEKRMKKKKRLNR,not soluble
12,MSLSKRAYFGTDGIRGQANKHPMTAEVALRVGLAAGKLFRSQDERRHLVVIGKDTRLSGYMIEPALVAGLTSVGLDVRLFGPLPTPAVAMMTRSMRADLGIMISASHNSFADNGIKLFGPDGYKLSDAQELGIEALMDQGLQEGLAAPRELGRVKRIDDAQARYVEIVKATFPRHLNLSGLRIVIDCANGAAYKVAPTALYELGAEVITLGVSPDGTNINEECGSTHPEAMAKMVREYRADIGIALDGDADRLVICDEKGVVVDGDQIMAIIAAASHKAGTLKGGGVVATVMSNLGLERQLNTMGLSLERTAVGDRYVMQRMREGGFNVGGEQSGHLILSDFSTTGDGLIAALQVLAVMVETDKPMSALGRQFEPVPQLLENVRFVGGKPLEAAAVKEAIADGEAQLNGAGRIVVRASGTEPLIRIMAEGDDPALVKKVVKSIASAVKEGHHHHHH,soluble
13,MSLSKPLKAIIIGAGISGMVASVRLREMGIEHTIFEKNNEFGGTWWENRYPGCGVDTPNLTYTFSFRPNDWSAFFPLRDEIENYLLETARESGLYDRVRFGTKVERAEWLADRNQWQVTVRAEDGSEEVHHADIVMSAVGILNMPVVPDIKGLSGFAGRVVHTSDWPQDIDLKGKRVAVVGNGASAMQVVPAIADQVAELTIFARSKQWAAPFPQFRKPVPNGVRYLMQVVPLYRAWVEQRLSWTFNDRVHGTLFRDPDWKEPARAVNAINDGHREFFTRYVREELGERQDLLPLVLPDYPPFAKRMLLDNGWYRTLRKPHVKLVPQRLAEVRGHTLVAQDGQEIEADVLILATGFQAANVLGSYDVIGRDGRDLHEFWEGDNAAAYLGTLVPGFPNFFILLGPNVGSGHGGSMIRNIENQAHYATRVIEALVKSGADAVEVREDVYGDYKARIDAAHEKLVWTHPGATNWYRNSRGRVVAITPWRNDAFWRMTREARPEDLSFSGAEGHHHHHH,soluble
14,RTVRQTPKQSERYVVVLSLDGFRPDYTDRARTPALDRMAQEGLSGSLQPCFPSLTFPNHYSMATGLYPDHHGIVANEFVDSLLGIFRISDRKAVETPGFWGGEPVWNTAARQGIRTGVYFWVGSETAVNGNRPWRWKKFSSTVPFRDRADSVIAWLGLPEKERPRLLMWYIEEPDMIGHSQTPESPLTLAMVERLDSVVGYFRKRLDSLPIAAQTDFIIVSDHGMATYENEKCVNLSH,not soluble
15,INYKQLQLQERTNIRKCQELLEQLNGKINLTYRADFKIPMEMTEKMQKSYTAFAIQEMLQNVFLVFRNNFSSTGWNETIVVRLLDELHQQTVFLKTVLEEKQEERLTWEMSSTALHLKSYYWRVQRYLKLMKYNSYAWMVVRAEIFRNFLIIRRLTRNFQN,soluble
16,MTQQIKYKRVLLKLSGESLMGSDPFGINHDTIVQTVGEIAEVVKMGVQVGIVVGGGNIFRGVSAQAGSMDRATADYMGMMATVMNALALKDAFETLGIKARVQSALSMQQIAETYARPKAIQYLEEGKVVIFAAGTGNPFFTTDTAAALRGAEMNCDVMLKATNVDGVYTADPKKDPSATRYETITFDEALLKNLKVMDATAFALCRERKLNIVVFGIAKEGSLKRVITGEDEGTLVHC,soluble
17,MCECYQFYRMRITQSAQICLSVIKKSQKTGFGPNRLQRKGTHFVGTEPPVLKYHILQDKKPNEEYGLQGTNHELPGTGKVHSKLPTKVHMKKDKVYAWCSCGYSGSQPLCDGSHNSIRIPDLKLKPVRFIPDKDMTVWLCNCKQTNNRPFCDGSHKTVTDEDKKAGLFD,not soluble
18,MADSVLKEVNCGRPEKIPKLDKACEGSKSSWKHLKLGNVEDDEYLRQYCLFHYEFHKSEGFTVDWEKYDYMFHIRPLENSPPISDIRTNADVIRDVTLFAIEKHNEAHGSKLVFVEHVSANFKFANGLLCWLTFWATDMASSAPTSQIYQVELWRRGKQFEIPIFRVKPKDEEMDDVEVKPPSPMPYDDYDKPPVVFVRAAPEDGVPFVFDRTGALYDLYRSGL,soluble
19,MSLSPPKPSALAHVPGDEGWPIIGRTLAVLADPKGEVEKMARTYGPVYRSRVLGETSITLLGPEANELVLFDNTKLFSSTHGWGPILGRLFPRGLMMLDFDEHRLHRRTLSVAFKAGPMQSYLAELNAGIAHRVAEWRARPGEMLCYPAMKQLTLDLAATSFLGTAIGAETEEVNRAFIDMVAASVAPIRKPWPGTAMARGVKGRQRIVAYFAEQIPIRRAKGGDDLFSQLCRATHDDGALLSNQAIIDHMSFLMMAAHDTLTSSLTSFVAALAAHPEWQQKLREEIAGLGLKPGEPISFEQLDALPLTEMAFKEAMRLRPPVPSLPRRATRAFSFKGYTIPAGTMVAVNPLFTHHMPEIWPNPDQFDPLRFTDEASRGRHRFAWIPYGGGAHMCLGLNFAYMQAKCFAVHLLQHLDLSLPPNYQASWQMWPIPKPKDGLRVNVAPLNEGHHHHHH,soluble
